Several values for one entry are separate records, joined by “and”; a condition that tells them apart may be missing. Identical values can stand only once.
Key:
Galectin-3 [1] = target: T1, Galectin-3 (UniProt P17931 1-250, limits assumed); experiment: BLI; after pipetting (shear stress)
T1 construct: Target of the anti-Gal3 antibody TB006; also called Gal3; GAL3

Galectin-3 [2] = target: T1, Galectin-3; experiment: BLI; after 4 C for 1 month
Galectin-3 [3] = target: T1, Galectin-3; experiment: BLI (Binding Activity); long-term stability 5 C, 3 months
Galectin-3 [4] = target: T1, Galectin-3; experiment: BLI; after 5 freeze/thaws, 25% vol. of container
Galectin-3 [5] = target: T1, Galectin-3; experiment: ELISA (Biological Activity); accelerated stability 25 C/60% RH, 3 months
Galectin-3 [6] = target: T1, Galectin-3; experiment: ELISA blocking assay; TB006 diluted to 0.31 mg/mL in 0.9% NaCl, 25 C, 2 h; blocked partner not named
Galectin-3 [7] = target: T1, Galectin-3; experiment: ELISA blocking assay; TB006 diluted to 0.31 mg/mL in 0.9% NaCl, 25 C, 4 h; blocked partner not named
Galectin-3 [8] = target: T1, Galectin-3; experiment: BLI; after 5 freeze/thaws, 50% vol. of container
Galectin-3 [9] = target: T1, Galectin-3; experiment: BLI; after -80 C for 9 months
Galectin-3 [10] = target: T1, Galectin-3; experiment: ELISA blocking assay; TB006 diluted to 0.31 mg/mL in 0.9% NaCl, 25 C, 0 h; blocked partner not named
Galectin-3 [11] = target: T1, Galectin-3; experiment: BLI; after 4 C for 6 months
Galectin-3 [12] = target: T1, Galectin-3; experiment: BLI; Time 0 (control)
Galectin-3 [13] = target: T1, Galectin-3; experiment: ELISA (Biological Activity); long-term stability 5 C, 0 months
Galectin-3 [14] = target: T1, Galectin-3; experiment: ELISA (Biological Activity); long-term stability 5 C, 1 month
Galectin-3 [15] = target: T1, Galectin-3; experiment: BLI; after 3 freeze/thaws, 25% vol. of container
Galectin-3 [16] = target: T1, Galectin-3; experiment: BLI; after 40 C for 21 days
Galectin-3 [17] = target: T1, Galectin-3; experiment: ELISA blocking assay; TB006 diluted to 0.31 mg/mL in 0.9% NaCl, 25 C, 0.5 h; blocked partner not named
Galectin-3 [18] = target: T1, Galectin-3; experiment: BLI; after 4 C for 9 months
Galectin-3 [19] = target: T1, Galectin-3; experiment: ELISA blocking assay; TB006 diluted to 0.31 mg/mL in 0.9% NaCl, 25 C, 1 h; blocked partner not named
Galectin-3 [20] = target: T1, Galectin-3; experiment: BLI (Binding Activity); accelerated stability 25 C/60% RH, 3 months
Galectin-3 [21] = target: T1, Galectin-3; experiment: BLI; after 40 C for 7 days
Galectin-3 (Gal3) [22] = target: T2, Galectin-3 (Gal3) (UniProt P17931 1-250, limits assumed); experiment: BLI; 20 mg/mL DS after agitation for 1 day
T2 construct: Target of TB006
T2 sequence (P17931 whole entry): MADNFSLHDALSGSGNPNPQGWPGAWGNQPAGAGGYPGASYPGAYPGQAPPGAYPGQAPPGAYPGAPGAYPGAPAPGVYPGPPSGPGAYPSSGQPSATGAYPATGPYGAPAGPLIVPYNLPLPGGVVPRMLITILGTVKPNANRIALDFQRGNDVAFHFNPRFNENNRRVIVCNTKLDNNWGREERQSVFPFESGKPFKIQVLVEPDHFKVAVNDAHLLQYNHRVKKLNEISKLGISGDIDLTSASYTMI
Method in brief: (§1)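 Samples were taken at time zero or after stress: agitation (shear), repeated freeze-thaw cycles, or storage at set temperatures, including a 40° C stress test and cryogenic storage. Binding to Galectin-3 was measured by biolayer interferometry and reported as the dissociation constant (Kd).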

Galectin-3 (Gal3) [23] = target: T2, Galectin-3 (Gal3); experiment: BLI; 20 mg/mL DS, time 0 control
Method in brief: as §1

Galectin-3 (Gal3) [24] = target: T2, Galectin-3 (Gal3); experiment: BLI; 20 mg/mL DS after -80 C for 1 month
Method in brief: as §1

Galectin-3 (Gal3) [25] = target: T2, Galectin-3 (Gal3); experiment: BLI; 20 mg/mL DS after 25 C for 1 month
Method in brief: as §1

Galectin-3 (Gal3) [26] = target: T2, Galectin-3 (Gal3); experiment: BLI; 20 mg/mL DS after -80 C for 6 months
Method in brief: as §1

Galectin-3 (Gal3) [27] = target: T2, Galectin-3 (Gal3); experiment: BLI; 50 mg/mL DS after 4 C for 6 months
Galectin-3 (Gal3) [28] = target: T2, Galectin-3 (Gal3); experiment: BLI; 20 mg/mL DS after 25 C for 6 months
Method in brief: as §1

Galectin-3 (Gal3) [29] = target: T2, Galectin-3 (Gal3); experiment: BLI; 20 mg/mL DS after 4 C for 3 months
Galectin-3 (Gal3) [30] = target: T2, Galectin-3 (Gal3); experiment: BLI; 50 mg/mL DS after agitation for 3 days
Galectin-3 (Gal3) [31] = target: T2, Galectin-3 (Gal3); experiment: BLI; 50 mg/mL DS after 4 C for 1 month
Galectin-3 (Gal3) [32] = target: T2, Galectin-3 (Gal3); experiment: BLI; 20 mg/mL DS after 4 C for 1 month

T1 sequence (P17931 whole entry): as above

B1: TB006 (antibody, human IgG4 S228P, kappa, V domains shown)
VH: QVQLVQSGAEVKKPGASVKVSCKASGYSFTNYYMHWVRQAPGQRLEWMGWIYPGSGNTNYNEKFQGRVTITADTSASTAYMELSSLRSEDTAVYYCSTAPGGFDVWGQGTTVTVSS
VL: DIVMTQTPLSLSVTPGQPASISCKSSKSLLHSDGITYLYWYLQKPGQSPQLLIYRMSNLASGVPDRFSGSGSGTDFTLKISRVEAEDVGVYYCAQMLEFPLTFGQGTKLEIKR
notes: Tested as formulated drug substance or drug product in 20 mM L-histidine, 5 mM methionine, 100 mM NaCl, 0.02% polysorbate 80, pH 5.8, or diluted in 0.9% saline; also called 4A11.H3L1; IMT006a
- Kd (Galectin-3 [1]): 2.8 nM
- Kd (Galectin-3 [2]): 3.3 nM
- Kd (Galectin-3 [3]): 3 nM
- Kd (Galectin-3 [4]): 2.9 nM
- IC50 (Galectin-3 [5]): 1.5 µg/mL
- IC50 (Galectin-3 [6]): 1.67 µg/mL and 1.71 µg/mL
- IC50 (Galectin-3 [7]): 1.35 µg/mL and 1.41 µg/mL
- Kd (Galectin-3 [8]): 3.1 nM
- Kd (Galectin-3 [9]): 2 nM
- IC50 (Galectin-3 [10]): 1.05 µg/mL
- Kd (Galectin-3 [11]): 2.3 nM
- Kd (Galectin-3 [12]): 2.8 nM
- IC50 (Galectin-3 [13]): 2.5 µg/mL
- IC50 (Galectin-3 [14]): 1.8 µg/mL
- Kd (Galectin-3 [15]): 2.8 nM
- Kd (Galectin-3 [16]): 2.8 nM
- IC50 (Galectin-3 [17]): 1.66 µg/mL and 1.34 µg/mL
- Kd (Galectin-3 [18]): 2.2 nM
- IC50 (Galectin-3 [19]): 1.63 µg/mL and 1.43 µg/mL
- Kd (Galectin-3 [20]): 3.1 nM
- Kd (Galectin-3 [21]): 2.4 nM

B2: TB006 (antibody, human IgG4 S228P, kappa, V domains shown)
VH: QVQLVQSGAEVKKPGASVKVSCKASGYSFTNYYMHWVRQAPGQRLEWMGWIYPGSGNTNYNEKFQGRVTITADTSASTAYMELSSLRSEDTAVYYCSTAPGGFDVWGQGTTVTVSS
VL: DIVMTQTPLSLSVTPGQPASISCKSSKSLLHSDGITYLYWYLQKPGQSPQLLIYRMSNLASGVPDRFSGSGSGTDFTLKISRVEAEDVGVYYCAQMLEFPLTFGQGTKLEIKR
notes: Full antibody tested as drug substance (DS) in 20 mM L-histidine, 5 mM methionine, 100 mM NaCl, 0.02% polysorbate-80, pH 5.8; also called 4A11.H3L1; IMT006a
- Kd (Galectin-3 (Gal3) [22]): 3.1 nM
- Kd (Galectin-3 (Gal3) [23]): 2.9 nM
- Kd (Galectin-3 (Gal3) [24]): 3.6 nM
- Kd (Galectin-3 (Gal3) [25]): 3.9 nM
- Kd (Galectin-3 (Gal3) [26]): 2.7 nM
- Kd (Galectin-3 (Gal3) [27]): 2.1 nM
- Kd (Galectin-3 (Gal3) [28]): 3.4 nM
- Kd (Galectin-3 (Gal3) [29]): 3.4 nM
- Kd (Galectin-3 (Gal3) [30]): 3.7 nM
- Kd (Galectin-3 (Gal3) [31]): 2.1 nM
- Kd (Galectin-3 (Gal3) [32]): 3.7 nM
